{"source": "patent US20150197564A1", "about": "(Regeneron, published 2015)", "binders": {"B1": {"name": "H4H1276S (antibody, IgG4, V domains shown)", "VH": "EVQLVESGGGVIQPGGSLRLSCAASGFTFDDYAMNWVRQGPGKGLEWVSAISGDGGSTYYADSVKGRFTISRDNSKNSLYLQMNSLRAEDTAFFYCAKDLRNTIFGVVIPDAFDIWGQGTMVTVSS", "VL": "not shown"}}, "key": {"hANGPTL3(17-170)-His [1]": {"target": "T1, hANGPTL3(17-170)-His (human, UniProt Q9Y5C1 17-170)", "T1 construct": "also called N-terminal coiled-coil domain of hANGPTL3 with a C-terminal hexahistidine tag; Human ANGPTL3 (17-170)-His", "T1 sequence": "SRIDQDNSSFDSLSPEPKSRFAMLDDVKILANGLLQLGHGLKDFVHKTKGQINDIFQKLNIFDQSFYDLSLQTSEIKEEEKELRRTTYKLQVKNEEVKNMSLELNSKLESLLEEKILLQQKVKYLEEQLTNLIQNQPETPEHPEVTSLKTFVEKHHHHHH", "experiment": "SPR Biacore, antigen captured, 37C, pH 7.2, PBSP", "experimental": "(§1) All kinetic binding experiments were performed at 25° C. or 37° C. on a BIACORE™ T200 label-free molecular interaction instrument (GE Healthcare) using a CM5 sensor chip. Briefly, an antigen capture surface was generated by covalently coupling either an anti-mouse IgG-specific antibody (anti-mFc; GE Healthcare; catalog #BR-1008-38) or an anti-pentahistidine-specific antibody (Qiagen; catalog #34660) to the surface of a CM5 sensor chip using a standard amine coupling method."}, "mANGPTL3(17-240)-His [2]": {"target": "T2, mANGPTL3(17-240)-His (Mus musculus, UniProt Q9R182 17-240)", "T2 construct": "also called N-terminal coiled-coil domain of ANGPTL3 from Mus musculus with a hexahistidine tag; Mouse ANGPTL3 (17-240)-His", "T2 sequence": "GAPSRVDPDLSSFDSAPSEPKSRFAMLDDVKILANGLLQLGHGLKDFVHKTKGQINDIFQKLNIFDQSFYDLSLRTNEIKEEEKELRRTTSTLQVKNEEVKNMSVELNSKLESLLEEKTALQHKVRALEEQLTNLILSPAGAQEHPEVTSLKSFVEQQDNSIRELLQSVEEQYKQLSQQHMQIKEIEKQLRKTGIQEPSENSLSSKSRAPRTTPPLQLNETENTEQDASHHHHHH", "experiment": "SPR Biacore, antigen captured, 25C, pH 7.4, HBS-EP", "experimental": "as §1"}, "MfANGPTL3(17-170)-mmH [3]": {"target": "T3, MfANGPTL3(17-170)-mmH (Macaca fascicularis)", "T3 construct": "also called N-terminal coiled-coil domain of ANGPTL3 from Macaca fascicularis with myc-myc-hexahistidine tag; Monkey ANGPTL3 (17-170)-mmH", "T3 chain": "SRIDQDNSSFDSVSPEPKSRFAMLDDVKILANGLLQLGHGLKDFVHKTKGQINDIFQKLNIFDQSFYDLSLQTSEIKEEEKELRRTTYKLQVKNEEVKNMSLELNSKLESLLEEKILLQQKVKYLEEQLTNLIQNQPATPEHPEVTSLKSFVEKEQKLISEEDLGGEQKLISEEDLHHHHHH", "experiment": "SPR Biacore, antigen captured, 25C, pH 7.4, HBS-EP", "experimental": "as §1"}, "hANGPTL3(17-460)-His": {"target": "T4, hANGPTL3(17-460)-His (human, UniProt Q9Y5C1 17-460)", "T4 sequence": "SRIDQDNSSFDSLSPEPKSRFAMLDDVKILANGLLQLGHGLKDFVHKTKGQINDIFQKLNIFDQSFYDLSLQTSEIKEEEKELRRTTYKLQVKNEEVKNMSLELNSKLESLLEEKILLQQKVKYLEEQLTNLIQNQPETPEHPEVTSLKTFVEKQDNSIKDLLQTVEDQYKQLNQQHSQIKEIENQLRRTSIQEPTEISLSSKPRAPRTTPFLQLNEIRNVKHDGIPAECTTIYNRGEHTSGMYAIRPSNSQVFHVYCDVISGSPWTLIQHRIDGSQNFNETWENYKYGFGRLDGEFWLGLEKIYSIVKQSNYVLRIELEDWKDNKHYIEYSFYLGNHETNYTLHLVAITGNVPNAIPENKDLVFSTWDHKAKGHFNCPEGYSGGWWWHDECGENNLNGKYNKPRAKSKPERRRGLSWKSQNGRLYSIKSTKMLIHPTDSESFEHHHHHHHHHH", "experiment": "cell-based or functional assay"}, "mANGPTL3(17-240)-His [4]": {"target": "T2, mANGPTL3(17-240)-His", "experiment": "cell-based or functional assay"}, "hANGPTL3(17-170)-His [5]": {"target": "T1, hANGPTL3(17-170)-His", "experiment": "cell-based or functional assay"}, "hANGPTL3(17-169)-mFc": {"target": "T5, hANGPTL3(17-169)-mFc (human)", "T5 chain": "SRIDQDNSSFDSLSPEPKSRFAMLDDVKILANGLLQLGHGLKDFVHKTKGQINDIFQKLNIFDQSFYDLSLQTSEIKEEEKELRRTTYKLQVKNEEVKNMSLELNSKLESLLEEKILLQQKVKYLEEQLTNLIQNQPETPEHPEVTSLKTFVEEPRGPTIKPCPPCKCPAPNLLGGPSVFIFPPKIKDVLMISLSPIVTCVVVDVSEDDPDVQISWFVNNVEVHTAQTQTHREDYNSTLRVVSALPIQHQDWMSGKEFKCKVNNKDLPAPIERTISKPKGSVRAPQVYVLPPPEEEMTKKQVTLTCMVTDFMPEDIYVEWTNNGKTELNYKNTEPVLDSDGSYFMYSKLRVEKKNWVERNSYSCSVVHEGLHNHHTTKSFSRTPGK", "experiment": "cell-based or functional assay"}, "MfANGPTL3(17-170)-mmH [6]": {"target": "T3, MfANGPTL3(17-170)-mmH", "experiment": "cell-based or functional assay"}, "mANGPTL3(17-455)-His": {"target": "T6, mANGPTL3(17-455)-His (Mus musculus, UniProt Q9R182 17-455)", "T6 sequence": "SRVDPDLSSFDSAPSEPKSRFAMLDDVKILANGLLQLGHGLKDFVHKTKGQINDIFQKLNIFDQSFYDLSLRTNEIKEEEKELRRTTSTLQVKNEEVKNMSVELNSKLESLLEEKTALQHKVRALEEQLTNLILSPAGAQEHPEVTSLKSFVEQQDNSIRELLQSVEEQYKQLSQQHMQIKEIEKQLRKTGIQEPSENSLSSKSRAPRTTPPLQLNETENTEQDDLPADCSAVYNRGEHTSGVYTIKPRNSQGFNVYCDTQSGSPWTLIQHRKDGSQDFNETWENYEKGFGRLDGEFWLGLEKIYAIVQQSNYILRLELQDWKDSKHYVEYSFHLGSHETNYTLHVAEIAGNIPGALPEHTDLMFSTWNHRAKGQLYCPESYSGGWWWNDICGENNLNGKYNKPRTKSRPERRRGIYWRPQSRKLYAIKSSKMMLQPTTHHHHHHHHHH", "experiment": "cell-based or functional assay"}}}
{"binder": "B1", "values": [{"measurement": "Kd", "setting": "hANGPTL3(17-170)-His [1]", "result": 1.74, "unit": "nM"}, {"measurement": "koff", "setting": "hANGPTL3(17-170)-His [1]", "result": 0.00273, "unit": "s⁻¹"}, {"measurement": "kon", "setting": "hANGPTL3(17-170)-His [1]", "result": "1.57e+06", "unit": "M⁻¹ s⁻¹"}, {"measurement": "t1/2", "setting": "hANGPTL3(17-170)-His [1]", "result": 4.2, "unit": "min"}, {"measurement": "Kd", "setting": "mANGPTL3(17-240)-His [2]", "result": 0.458, "unit": "nM"}, {"measurement": "koff", "setting": "mANGPTL3(17-240)-His [2]", "result": 0.000307, "unit": "s⁻¹"}, {"measurement": "kon", "setting": "mANGPTL3(17-240)-His [2]", "result": 670000, "unit": "M⁻¹ s⁻¹"}, {"measurement": "t1/2", "setting": "mANGPTL3(17-240)-His [2]", "result": 37.6, "unit": "min"}, {"measurement": "Kd", "setting": "MfANGPTL3(17-170)-mmH [3]", "result": 0.396, "unit": "nM"}, {"measurement": "koff", "setting": "MfANGPTL3(17-170)-mmH [3]", "result": 0.000535, "unit": "s⁻¹"}, {"measurement": "kon", "setting": "MfANGPTL3(17-170)-mmH [3]", "result": "1.35e+06", "unit": "M⁻¹ s⁻¹"}, {"measurement": "t1/2", "setting": "MfANGPTL3(17-170)-mmH [3]", "result": 21.6, "unit": "min"}, {"measurement": "IC50 (nM), LPL bioassay, 80 nM constant ANGPTL3", "setting": "hANGPTL3(17-460)-His", "result": 9.6, "unit": "nM"}, {"measurement": "IC50 (nM), LPL bioassay, 500 nM constant ANGPTL3", "setting": "mANGPTL3(17-240)-His [4]", "result": 31, "unit": "nM"}, {"measurement": "IC50 (nM), LPL bioassay, 100 nM constant ANGPTL3", "setting": "hANGPTL3(17-170)-His [5]", "result": 2.9, "unit": "nM"}, {"measurement": "IC50 (nM), LPL bioassay, 80 nM constant ANGPTL3", "setting": "hANGPTL3(17-169)-mFc", "result": 21, "unit": "nM"}, {"measurement": "IC50 (nM), LPL bioassay, 500 nM constant ANGPTL3", "setting": "MfANGPTL3(17-170)-mmH [6]", "result": 10, "unit": "nM"}, {"measurement": "IC50 (nM), LPL bioassay, 80 nM constant ANGPTL3", "setting": "mANGPTL3(17-455)-His", "result": 14, "unit": "nM"}]}
